The values below come from patent US20250333515A1.

Test [1] has as its target biotinylated recombinant human CLL-1 extracellular domain protein, isoform with glutamine at amino acid position 244 (human) (UniProt Q5QGZ9). Kind of test: EC50 table, CLL-1 Q244; reciprocals of the ELISA bars of FIG. 8B. (In an ELISA, binding on a coated surface is turned into a signal by an enzyme label.)
In test [2] the target is biotinylated recombinant human CLL-1 extracellular domain protein, isoform with lysine at amino acid position 244 (human) (UniProt Q5QGZ9). Put plainly: EC50 table, CLL-1 K244; reciprocals of the ELISA bars of FIG. 8B.
Test [3] deals with biotinylated recombinant human CLL-1 extracellular domain protein, isoform with glutamine at amino acid position 244 (human) (UniProt Q5QGZ9). Put plainly: BLItz, 1:1 model (Q244 per FIG. 12B).
Test [4] deals with biotinylated recombinant human CLL-1 extracellular domain protein, isoform with lysine at amino acid position 244 (human) (UniProt Q5QGZ9). Put plainly: Octet (CLL-1-K244); variant: Both. (In general: BLI is a label-free optical method that tracks binding on a fibre tip over time.)
In test [5] the target is biotinylated recombinant human CLL-1 extracellular domain protein, isoform with glutamine at amino acid position 244 (human) (UniProt Q5QGZ9). Kind of test: Exp 2 (= Blitz, CLL-1-Q244 of FIG. 12B).
Test [6] has the same target. Put plainly: Blitz (CLL-1-Q244).
Test [7] has as its target biotinylated recombinant human CLL-1 extracellular domain protein, isoform with lysine at amino acid position 244 (human) (UniProt Q5QGZ9). Put plainly: Exp 1 (= Octet, CLL-1-K244 of FIG. 12B).
The target is the same in test [8]. Put plainly: Octet (CLL-1-K244); variant column: Q>K.

Sequence of biotinylated recombinant human CLL-1 extracellular domain protein, isoform with lysine at amino acid position 244 (human) (Q5QGZ9 65-265): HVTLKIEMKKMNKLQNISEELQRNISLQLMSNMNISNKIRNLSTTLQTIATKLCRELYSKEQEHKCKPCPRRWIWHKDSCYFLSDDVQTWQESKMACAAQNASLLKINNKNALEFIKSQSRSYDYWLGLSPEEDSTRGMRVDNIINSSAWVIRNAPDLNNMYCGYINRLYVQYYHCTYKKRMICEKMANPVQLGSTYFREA
Sequence of biotinylated recombinant human CLL-1 extracellular domain protein, isoform with glutamine at amino acid position 244 (human) (Q5QGZ9 65-265): as above

B1: Anti-CLL-1 Binder Clone 94 (VHH)
VHH: QVQLVQSGGGLVQPGGSLRLSCAASYFDFAAYDMDWVRQAPGQRLEWVAKISHDGSYSWYADSVKGRFTISRDNSKNTLYLQMNTLRAEDTAVYYCVRGEGGSERADYWGRGTLVTVSS
In general, EC50 refers to the concentration that produces a half-maximal response. Take B1: the EC50 in test [1] was determined as 90 nM.

B2: Anti-CLL-1 Binder Clone 95 (VHH)
VHH: QVQLVQSGGGLVQPGGSLRLSCAASAFDFDDSSMDWVRQAPGKALEWIGSISYFGSTYYNPSLKSRVTISRDNSKNTLYLQMNTLRAEDTATYYCTRSALYGDAAFDVWAQGTTVTVS
On to B2, for which the values for the EC50 in test [1] and in test [2] were 5.3 nM and 5.1 nM, respectively.

B3: Anti-CLL-1 Binder Clone 38 (scFv, not shown: small tags and cut ends)
scFv: DIQMTQSPSTLSASVGDRVTITCRASQSISSWLAWYQQKPGKAPKLLIYTASSLQSGVPSRFSGSESGTDFTLTISSLQPEDFATYYCQQSYSTPLTFGGGTKVDIKGGGGSGGGGSGGGGSQVQLVQSGAEVKKPGASVKVSCKASGYTFTGYYMHWVRQAPGQGLEWMGWINPNSGGTNYAQKFQGRVTLTRDTSITTAYLELTSLTSDDTAVYYCARGDTGDFFDHWGQGTLVTVSS
A word on the Kd: it is the equilibrium constant for the complex coming apart. What is called koff is a measure of how fast the partners let go of each other. In general, kon refers to a measure of how fast the partners come together. For B3, the Kd in test [3] amounted to 14 nM; in test [4] it was 1.74 nM; in test [5], 14 nM; in test [6], 14 nM; in test [7] it was 1.74 nM. Moreover, in test [3], the dissociation rate constant (koff) came to 0.00097 s⁻¹. In addition, in test [3], the kon stood at 69000 M⁻¹ s⁻¹.

B4: Anti-CLL-1 Binder Clone 41 (scFv, not shown: small tags and cut ends)
scFv: QSVLTQPASVSGSLGQSITISCTGTSRDVGGYNFVSWYQQHPGKAPKLIIFDVTTRPSGLSDRFSASKSGNTASLTISGLQAEDEADYFCGSYTASDTMLFGGGTKLTVLGGGGSGGGGSGGGGSQVQLLESGGGVVQPGRSLRLSCAASGFTFDDYAMHWVRQAPGKGLEWVSGISWNSGSIGYADSVKGRFTVSRDNSKNTLYQQMNGLRAEDTAVYYCAREGRPTAFDYWGQGTTVTVSS
As to B4, in test [3], the dissociation constant Kd came out at 306 nM, the off-rate (koff) worked out at 0.032 s⁻¹ and the on-rate (kon) is 100000 M⁻¹ s⁻¹. Moreover, in test [5], the equilibrium dissociation constant (Kd) worked out at 306 nM. The equilibrium dissociation constant (Kd) in test [6] was 306 nM.

B5: Anti-CLL-1 Binder Clone 20 (VHH, not shown: small tags and cut ends)
VHH: QVQLVQSGGGLVQPGGSLRLSCAASDFSFSYYEMSWVRQAPGKGLEWVSTISGSGDSTYYADSVKGRFTISRDNTKNTLYLQMNTLRAEDTATYYCMTDGETWGTHRYTVYWGQGALVTVSS
On to B5, for which the Kd turned out to be 33 nM in test [3]; 5.68 nM in test [4]; 33 nM in test [5]; 33 nM in test [6]; 5.68 nM in test [7]. The koff in test [3] was found to be 0.0035 s⁻¹. Moreover, the on-rate constant (kon) in test [3] turned out to be 110000 M⁻¹ s⁻¹.

B6: Anti-CLL-1 Binder Clone 98 (VHH)
VHH: QVQLVQSGGGLVQPGGSLRLSCAASDFYFDDYEMSWVRQAPGQRLEWVSLISSDGTTYYADSVKGRFTISRDNSKNTLYLQMNTLRAEDTALYYCVRTTDSWELDLWGRGTLVTVSS
For B6, the figures for the EC50 in test [1] and in test [2] were 11 nM and 12 nM, respectively.

B7: Anti-CLL-1 Binder Clone 102 (VHH)
VHH: QVQLVQSGGGLVQPGGSLRLSCAASYFSFADYEMSWVRQAPGQRLEWVAVVSKDGNELYYADSVKGRFTISRDNSKNTLYLQMNTLRAEDTAVYYCVKDPYDFWSGYYSNWGQGTLVTVSS
As to B7, the EC50 was determined as 2.5 nM in test [1] and 2.6 nM in test [2].

B8: Anti-CLL-1 Binder Clone 97 (VHH)
VHH: QVQLVQSGGGLVQPGGSLRLSCAASDFDFDDDSMDWVRQAPGKGLEWIGSVLHDGATYYNPSLKSRVTISRDNSKNTLYLQMNTLRAEDTATYYCTRSALYGDAAFDVWAQGTMVTVSS
Turning to B8, the 50% effective concentration (EC50) in test [1] and in test [2] was 1.3 nM throughout.

B9: Anti-CLL-1 Binder Clone 101 (VHH)
VHH: QVQLVQSGGGLVQPGGSLRLSCAASDFDFADDSMDWVRQAPGKALEWIGSIFYSGTTYYNPSLKSRVTISRDNSKNTLYLQMNTLRAEDTAVYYCTRSALYGDAAFDVWAQGTMVTVSS
As to B9, the EC50 in test [1] and in test [2] was 4.8 nM throughout.

B10: Anti-CLL-1 Binder Clone 100 (VHH)
VHH: QVQLVQSGGGLVQPGGSLRLSCAASDFDFDDDSMDWVRQAPGKALEWIGSVSYSGQTFYNPSLKSRVTISRDNSKNTLYLQMNTLRAEDTAMYYCTRSALYGDAAFDVWAQGTMVTVSS
Regarding B10, the concentration giving a half-maximal response (EC50) in test [1] worked out at 0.59 nM; in test [2], 0.6 nM.

B11: Anti-CLL-1 Binder Clone 12 (scFv, not shown: small tags and cut ends)
scFv: DIQMTQSPSSLSASVGDRVTITCQASQDISNYLNWYQQKPGKAPKLLIYDASNLETGVPSRFSGSGSGTDFTLTISSPQPEDLATYYCQQANSFPFTFGQGTKVEIKGGGGSGGGGSGGGGSQVQLVQSGAEVKKPGSSVKVSCKASGYSFTRNDITWVRQANGRGLEWLGRLNPNNGDTVYAEVFQGRVAMTRDTSTDTAYMELASLKSDDTAVYFCARGFWSFDVWGQGTMVTVSS
For the molecule B11, in test [3], the equilibrium dissociation constant (Kd) worked out at 45 nM, the off-rate (koff) was 0.0034 s⁻¹ and the association rate constant (kon) turned out to be 76000 M⁻¹ s⁻¹. Further, in test [5], the equilibrium dissociation constant (Kd) turned out to be 45 nM. Besides, the Kd in test [6] turned out to be 45 nM.

B12: Anti-CLL-1 Binder Clone 99 (VHH)
VHH: QVQLVQSGGGLVQPGGSLRLSCAASAFDFYSYEMSWVRQAPGKGLEWVSYIGPIGTDIGYADSVKGRFTISRDNSKNTLYLQMNTLRAEDTAMYYCAKDPYYDSTGLTSYWGQGTLVTVSS
Regarding B12, the 50% effective concentration (EC50) was found to be 88 nM in test [1] and 93 nM in test [2].

B13: Anti-CLL-1 Binder Clone 6 (scFv, not shown: small tags and cut ends)
scFv: QSVLTQPPSVSAAPGQKVSIFCSGGSSNIGKNYVSWYQQLPGTAPKLLIYENQHRPSGIPDRFSGSKSGTSATLGITGLQTGDEADYYCATWDDSLSAGVFGGGTELTVLGGGGSGGGGSGGGGSQLVQSGAEVRKPGESLKISCKGSGYSFTSYWIGWVRQMPGKGLEWMGFIYPGDSDTRYSPSFQGQVTISADKSISTAYLQRSSLKASDTAMYYCARLGGYSGYDSEVFYLDYWGQGTTVTVSS
In the case of B13, the Kd in test [3] turned out to be 11 nM; in test [4], 5.08 nM; in test [5] it was 11 nM; in test [6], 11 nM; in test [7] it was 5.08 nM. Further, the koff in test [3] came to 0.00029 s⁻¹. Moreover, the association rate constant (kon) in test [3] is 27000 M⁻¹ s⁻¹.

B14: Anti-CLL-1 Binder Clone 2 (scFv, not shown: small tags and cut ends)
scFv: QSVLTQPLSVSVALGQTARITCGGNNIGSKNVHWYQQKAGQAPVLVIQRDSNRPSGIPERFSGSNSGNTATLTISRAQAGDEADYFCQVWDSNTYVFGTGTKLTVLGGGGSGGGGSGGGGSEVQLVESGGGLVKPGGSLRLSCAASGFTFSDYYMSWIRQAPGKGLEWVSYISSSGSTIYYADSVKGRFTISRDNAKNSLYLQMNSLRDEDTAVYYCARQSAEIVGAFDHWGQGTMVTVSS
Consider B14, for which, in test [3], the Kd was found to be 70 nM, the off-rate constant (koff) was 0.0033 s⁻¹ and the kon is 47000 M⁻¹ s⁻¹. For the same molecule, in test [5], the dissociation constant Kd was found to be 70 nM. In addition, the Kd in test [6] amounted to 70 nM.

B15: Anti-CLL-1 Binder Clone 10 (scFv, not shown: small tags and cut ends)
scFv: DIQMTQSPSFLSASVGDRVTITCRASQGISSYLAWYQQKPGKAPKLLIYSASSLQSGVPSRFSGSGSGTDFTLTISSLQPEDFATYYCQQSYNSPTFGQGTRLEIKGGGGSGGGGSGGGGSQVQLVQSGAEVKKPGASVKVSCKASGYTFTGYYMHWVRQAPGQGLEWMGWMNPNSGNTGYAQKFQGRVTMTRNTSISTAYLELTSLTSDDTAVYYCARGDTGDFFDHWGQGTLVTVSS
Regarding B15, the dissociation constant Kd was found to be 21 nM in test [3]; 2.61 nM in test [4]; 21 nM in test [5]; 21 nM in test [6]; 2.61 nM in test [7]. Besides, the koff in test [3] amounted to 0.0013 s⁻¹. For the same molecule, the kon in test [3] turned out to be 62000 M⁻¹ s⁻¹.

B16: Anti-CLL-1 Binder Clone 11 (scFv, not shown: small tags and cut ends)
scFv: QSVLTQPASVSGSPGQSITISCTGTSSDVGASNSVSWYQRHPGKPPKLMIYDVSNRPSGISNRFSGSKSGNTASLTISGLQSEDEADYYCSSYTGSSTFVVFGGGTQLIILGGGGSGGGGSGGGGSEVQLVESGGGVVQPGGSLRLSCAASGFTFSSYWMSWVRQAPGKGLEWVANIRQDGSEKYYVDSVKGRFTISRDNAKNSLYLQMNSLRAEDAAVYYCAREQDTAMVAFDYWGQGTLVTVSS
Consider B16, for which the Kd in test [3] came to 41 nM; in test [8], 16.6 nM; in test [5] it was 41 nM; in test [6], 41 nM; in test [7], 16.6 nM. Besides, in test [3], the off-rate constant (koff) stood at 0.0023 s⁻¹. For the same molecule, the on-rate (kon) in test [3] is 59000 M⁻¹ s⁻¹.

B17: Anti-CLL-1 Binder Clone 96 (VHH)
VHH: QVQLVQSGGGLVQPGGSLRLSCAASYFDFSYYEMSWVRQAPGKGLEWVSLMSGNGGSTYYADSVKGRFTISRDNSKNTLYLQMNTLRAEDTATYYCVAHSSTWFSWGQGTLVTVSS
With B17, the EC50 in test [1] and in test [2] was 6.4 nM in each case.

B18: Anti-CLL-1 Binder Clone 4 (scFv, not shown: small tags and cut ends)
scFv: QSVVTQPPSVSAAPGQKVTISCSGSSPNIGKNYVSWYQQLPGTAPKLLIYDNNKRPSGIPDRFSGSKSGTSATLGITGLQTGDEADYYCGTWDSSLSGYVFGTGTKVTVLGGGGSGGGGSGGGGSQVQLVESGGGVVQPGRSLRLSCAASGFTFSSYGMHWVRQAPGKGLEWVAFISHDGSNKYYADSVKGRSTISRDNSKSTLFLQMNSLRDEDTAVYFCAREGQLTTSWDFFDYWGHGTLVTVSS
B18: the equilibrium dissociation constant (Kd) in test [3], in test [5] and in test [6] was 13 nM in each case. Besides, the koff in test [3] worked out at 0.00057 s⁻¹. For the same molecule, in test [3], the association rate constant (kon) is 43000 M⁻¹ s⁻¹.
